# Source: US11504441B2, “Radiolabeled compounds targeting the prostate-specific membrane antigen” (PROVINCIAL HEALTH SERVICES AUTHORITY, priority 2019, dated 2022)
# Assays:
# [1] = in vivo; details: male, NODSCID 1L2RγKO, mouse, iv, total radioactivity, kidney uptake
# Description: LNCaP cell line was obtained from ATCC (LNCaP clone FGC, CRL-1740). […] Cells were cultured in PRM I 1640 medium supplemented with 10% FBS, penicillin (100 U/mL) and streptomycin (100 μg/mL) at 37° C. in a humidified incubator containing 5% CO2. Cells grown to 80-90% confluence were then washed with sterile phosphate-buffered saline (1× PBS pH 7.4) and collected by trypsinization. The collected cells concentration was counted with a Hausser Scientific (Horsham, Pa.) Hemacytometer.
# Imaging and biodistribution experiments were performed using NODSCID 1 L2RγKO male mice. Mice were anesthetized by inhalation with 2% isoflurane in oxygen, and implanted subcutaneously with 1×10^7 LNCaP cells behind left shoulder. Mice were imaged or used in biodistribution studies when the tumor grew up to reach 5-8 mm in diameter during 5-6 weeks.
# PET imaging experiments were conducted using Siemens Inveon micro PET/CT scanner. Each tumor bearing mouse was injected 6-8 MBq of Ga-68 labeled tracer through the tail vein under anesthesia (2% isoflurane in oxygen). The mice were allowed to recover and roam freely in their cage. After 50 min, the mice were sedated again with 2% isoflurane in oxygen inhalation and positioned in the scanner. A 10-min CT scan was conducted first for localization and attenuation correction after segmentation for reconstructing the PET images. Then, a 10-min static PET imaging was performed to determined uptake in tumor and other organs. The mice were kept warm by a heating pad during acquisition. For biodistribution studies, the mice were injected with the radiotracer as described above. The mice was anesthetized with 2% isoflurane inhalation, and euthanized by CO2 inhalation. Blood was withdrawn immediately from the heart, and the organs/tissues of interest were collected. The collected organs/tissues were weighed and counted using a Perkin Elmer (Waltham, Mass.) Wizard2 2480 gamma counter. The uptake in each organ/tissue was normalized to the injected dose using a standard curve, and expressed as the percentage of the injected dose per gram of tissue (% ID/g).
# LNCaP cell line was obtained from ATCC (LNCaP clone FGC, CRL-1740). […] Cells were cultured in PRM I 1640 medium supplemented with 10% FBS, penicillin (100 U/mL) and streptomycin (100 μg/mL) at 37° C. in a humidified incubator containing 5% CO2. Cells grown to 80-90% confluence were then washed with sterile phosphate-buffered saline (1× PBS pH 7.4), and collected by trypsinization. The collected cell concentration was counted with a Hausser Scientific (Horsham, Pa.) Hemacytometer.
# Imaging and biodistribution experiments were performed using NODSCID 1L2RγKO male mice. Mice were anesthetized by inhalation with 2% isoflurane in oxygen, and implanted subcutaneously with 1×10^7 LNCaP cells behind left shoulder. Mice were imaged or used in biodistribution studies when the tumor grew up to reach 5-8 mm in diameter during 5-6 weeks.
# PET imaging experiments were conducted using Siemens Inveon micro PET/CT scanner. Each tumor bearing mouse was injected 6-8 MBq of Ga-68 or F-18 labeled tracer through the tail vein under anesthesia (2% isoflurane in oxygen). The mice were allowed to recover and roam freely in their cage. After 50 min, the mice were sedated again with 2% isoflurane in oxygen inhalation and positioned in the scanner. A 10-min CT scan was conducted first for localization and attenuation correction after segmentation for reconstructing the PET images. Then, a 10-min static PET imaging was performed to determined uptake in tumor and other organs.
# For biodistribution studies, the mice were injected with the radiotracer as described above.
# [2] = in vivo; parameters: species or system mice; details: male, NODSCID 1L2RγKO, mouse, iv, total radioactivity
structure (smiles),measurement,setting,value
O=C(O)CC[C@H](NC(=O)N[C@@H](CCCCNC(=O)[C@H](Cc1c2ccccc2cc2ccccc12)NC(=O)C1CCC(CNC(=O)CN2CCN(CC(=O)O)CCN(CC(=O)O)CCN(CC(=O)O)CC2)CC1)C(=O)O)C(=O)O (stereo partly shown) [HTK03041],tissue uptake at 1 h,[1],170 %ID/g
"COc1ccc(CCCC(=O)NCC(=O)N[C@@H](CCCCNC(=O)CN2CCN(CC(=O)O)CCN(CC(=O)O)CCN(CC(=O)O)CC2)C(=O)NC[C@H]2CC[C@H](C(=O)N[C@@H](Cc3c4ccccc4cc4ccccc34)C(=O)NCCCC[C@H](NC(=O)N[C@@H](CSCC(=O)O)C(=O)O)C(=O)O)CC2)cc1 [177Lu-HTK04048, metal not drawn]",tissue uptake at 1 h,[2]; Adrenal glands uptake,3.95 ± 0.34 %ID/g
same,tissue uptake at 4 h,[2]; Adrenal glands uptake,2.1 ± 0.22 %ID/g
same,tissue uptake at 24 h,[2]; Adrenal glands uptake,0.49 ± 0.04 %ID/g
same,tissue uptake at 72 h,[2]; Adrenal glands uptake,0.34 ± 0.03 %ID/g
same,tissue uptake at 120 h,[2]; Adrenal glands uptake,0.37 ± 0.09 %ID/g
same,tissue uptake at 1 h,[2]; Blood uptake,17.7 ± 2.05 %ID/g
same,tissue uptake at 4 h,[2]; Blood uptake,12.3 ± 1.56 %ID/g
same,tissue uptake at 24 h,[2]; Blood uptake,0.68 ± 0.11 %ID/g
same,tissue uptake at 72 h,[2]; Blood uptake,0.12 ± 0.01 %ID/g
same,tissue uptake at 120 h,[2]; Blood uptake,0.05 ± 0.02 %ID/g
same,tissue uptake at 1 h,[2]; Bone uptake,1.04 ± 0.2 %ID/g
same,tissue uptake at 4 h,[2]; Bone uptake,0.74 ± 0.09 %ID/g
same,tissue uptake at 24 h,[2]; Bone uptake,0.11 ± 0.02 %ID/g
same,tissue uptake at 72 h,[2]; Bone uptake,0.07 ± 0.01 %ID/g
same,tissue uptake at 120 h,[2]; Bone uptake,0.07 ± 0.01 %ID/g
same,tissue uptake at 1 h,[2]; Brain uptake,0.31 ± 0.02 %ID/g
same,tissue uptake at 4 h,[2]; Brain uptake,0.18 ± 0.02 %ID/g
same,tissue uptake at 24 h,[2]; Brain uptake,0.03 %ID/g
same,tissue uptake at 72 h,[2]; Brain uptake,0.01 %ID/g
same,tissue uptake at 120 h,[2]; Brain uptake,0.01 %ID/g
same,tissue uptake at 1 h,[2]; Fat uptake,1.32 ± 0.17 %ID/g
same,tissue uptake at 4 h,[2]; Fat uptake,1 ± 0.13 %ID/g
same,tissue uptake at 24 h,[2]; Fat uptake,0.15 ± 0.06 %ID/g
same,tissue uptake at 72 h,[2]; Fat uptake,0.08 ± 0.03 %ID/g
same,tissue uptake at 120 h,[2]; Fat uptake,0.06 ± 0.03 %ID/g
same,tissue uptake at 1 h,[2]; Heart uptake,4.41 ± 0.22 %ID/g
same,tissue uptake at 4 h,[2]; Heart uptake,2.99 ± 0.36 %ID/g
same,tissue uptake at 24 h,[2]; Heart uptake,0.36 ± 0.04 %ID/g
same,tissue uptake at 72 h,[2]; Heart uptake,0.16 ± 0.01 %ID/g
same,tissue uptake at 120 h,[2]; Heart uptake,0.1 ± 0.02 %ID/g
same,tissue uptake at 1 h,[2]; Intestine uptake,1.26 ± 0.2 %ID/g
same,tissue uptake at 4 h,[2]; Intestine uptake,1.03 ± 0.1 %ID/g
same,tissue uptake at 24 h,[2]; Intestine uptake,0.49 ± 0.41 %ID/g
same,tissue uptake at 72 h,[2]; Intestine uptake,0.15 ± 0.09 %ID/g
same,tissue uptake at 120 h,[2]; Intestine uptake,0.05 ± 0.02 %ID/g
same,tissue uptake at 1 h,[2]; Kidneys uptake,14.5 ± 3.33 %ID/g
same,tissue uptake at 4 h,[2]; Kidneys uptake,12.4 ± 1.36 %ID/g
same,tissue uptake at 24 h,[2]; Kidneys uptake,5.06 ± 0.91 %ID/g
same,tissue uptake at 72 h,[2]; Kidneys uptake,2.28 ± 0.24 %ID/g
same,tissue uptake at 120 h,[2]; Kidneys uptake,1.69 ± 0.58 %ID/g
same,tissue uptake at 1 h,[2]; Lacrimal uptake,0.5 ± 0.05 %ID/g
same,tissue uptake at 4 h,[2]; Lacrimal uptake,0.32 ± 0.13 %ID/g
same,tissue uptake at 24 h,[2]; Lacrimal uptake,0.05 ± 0.01 %ID/g
same,tissue uptake at 72 h,[2]; Lacrimal uptake,0.01 ± 0.01 %ID/g
same,tissue uptake at 120 h,[2]; Lacrimal uptake,0.01 ± 0.01 %ID/g
same,tissue uptake at 1 h,[2]; Liver uptake,3.95 ± 0.83 %ID/g
same,tissue uptake at 4 h,[2]; Liver uptake,2.16 ± 0.17 %ID/g
same,tissue uptake at 24 h,[2]; Liver uptake,0.45 ± 0.04 %ID/g
same,tissue uptake at 72 h,[2]; Liver uptake,0.26 ± 0.01 %ID/g
same,tissue uptake at 120 h,[2]; Liver uptake,0.22 ± 0.08 %ID/g
same,tissue uptake at 1 h,[2]; Lungs uptake,9.01 ± 0.91 %ID/g
same,tissue uptake at 4 h,[2]; Lungs uptake,6.35 ± 0.78 %ID/g
same,tissue uptake at 24 h,[2]; Lungs uptake,1.09 ± 0.33 %ID/g
same,tissue uptake at 72 h,[2]; Lungs uptake,0.29 ± 0.05 %ID/g
same,tissue uptake at 120 h,[2]; Lungs uptake,0.15 ± 0.05 %ID/g
same,tissue uptake at 1 h,[2]; Muscle uptake,1.42 ± 0.11 %ID/g
same,tissue uptake at 4 h,[2]; Muscle uptake,1 ± 0.1 %ID/g
same,tissue uptake at 24 h,[2]; Muscle uptake,0.11 ± 0.01 %ID/g
same,tissue uptake at 72 h,[2]; Muscle uptake,0.04 ± 0.01 %ID/g
same,tissue uptake at 120 h,[2]; Muscle uptake,0.05 ± 0.05 %ID/g
same,tissue uptake at 1 h,[2]; Pancreas uptake,1.7 ± 0.17 %ID/g
same,tissue uptake at 4 h,[2]; Pancreas uptake,1.21 ± 0.14 %ID/g
same,tissue uptake at 24 h,[2]; Pancreas uptake,0.17 ± 0.03 %ID/g
same,tissue uptake at 72 h,[2]; Pancreas uptake,0.07 ± 0.01 %ID/g
same,tissue uptake at 120 h,[2]; Pancreas uptake,0.04 ± 0.01 %ID/g
same,tissue uptake at 1 h,[2]; Salivary uptake,2.7 ± 0.29 %ID/g
same,tissue uptake at 4 h,[2]; Salivary uptake,2.01 ± 0.17 %ID/g
same,tissue uptake at 24 h,[2]; Salivary uptake,0.42 ± 0.07 %ID/g
same,tissue uptake at 72 h,[2]; Salivary uptake,0.2 ± 0.03 %ID/g
same,tissue uptake at 120 h,[2]; Salivary uptake,0.14 ± 0.02 %ID/g
same,tissue uptake at 1 h,[2]; Seminal uptake,1.14 ± 0.17 %ID/g
same,tissue uptake at 4 h,[2]; Seminal uptake,0.92 ± 0.2 %ID/g
same,tissue uptake at 24 h,[2]; Seminal uptake,0.11 ± 0.03 %ID/g
same,tissue uptake at 72 h,[2]; Seminal uptake,0.06 ± 0.01 %ID/g
same,tissue uptake at 120 h,[2]; Seminal uptake,0.04 ± 0.01 %ID/g
same,tissue uptake at 1 h,[2]; Spleen uptake,2.54 ± 0.6 %ID/g
same,tissue uptake at 4 h,[2]; Spleen uptake,2.1 ± 0.39 %ID/g
same,tissue uptake at 24 h,[2]; Spleen uptake,0.6 ± 0.05 %ID/g
same,tissue uptake at 72 h,[2]; Spleen uptake,0.62 ± 0.14 %ID/g
same,tissue uptake at 120 h,[2]; Spleen uptake,0.92 ± 0.3 %ID/g
same,tissue uptake at 1 h,[2]; Stomach uptake,0.74 ± 0.14 %ID/g
same,tissue uptake at 4 h,[2]; Stomach uptake,0.81 ± 0.04 %ID/g
same,tissue uptake at 24 h,[2]; Stomach uptake,0.89 ± 0.84 %ID/g
same,tissue uptake at 72 h,[2]; Stomach uptake,0.23 ± 0.16 %ID/g
same,tissue uptake at 120 h,[2]; Stomach uptake,0.03 ± 0.01 %ID/g
same,tissue uptake at 1 h,[2]; Tail uptake,3.57 ± 0.35 %ID/g
same,tissue uptake at 4 h,[2]; Tail uptake,2.72 ± 0.61 %ID/g
same,tissue uptake at 24 h,[2]; Tail uptake,0.4 ± 0.17 %ID/g
same,tissue uptake at 72 h,[2]; Tail uptake,0.15 ± 0.03 %ID/g
same,tissue uptake at 120 h,[2]; Tail uptake,0.19 ± 0.13 %ID/g
same,tissue uptake at 1 h,[2]; Testes uptake,2.25 ± 0.3 %ID/g
same,tissue uptake at 4 h,[2]; Testes uptake,2.68 ± 0.16 %ID/g
same,tissue uptake at 24 h,[2]; Testes uptake,0.73 ± 0.32 %ID/g
same,tissue uptake at 72 h,[2]; Testes uptake,0.34 ± 0.03 %ID/g
same,tissue uptake at 120 h,[2]; Testes uptake,0.26 ± 0.04 %ID/g
same,tissue uptake at 1 h,[2]; Thyroid uptake,3.79 ± 0.23 %ID/g
same,tissue uptake at 4 h,[2]; Thyroid uptake,2.69 ± 0.26 %ID/g
same,tissue uptake at 24 h,[2]; Thyroid uptake,0.55 ± 0.07 %ID/g
same,tissue uptake at 72 h,[2]; Thyroid uptake,0.31 ± 0.04 %ID/g
same,tissue uptake at 120 h,[2]; Thyroid uptake,0.19 ± 0.01 %ID/g
same,tissue uptake at 1 h,[2]; Tumor uptake,15.6 ± 2.98 %ID/g
same,tissue uptake at 4 h,[2]; Tumor uptake,46.5 ± 28.4 %ID/g
same,tissue uptake at 24 h,[2]; Tumor uptake,54.3 ± 10.6 %ID/g
same,tissue uptake at 72 h,[2]; Tumor uptake,66.3 ± 18.7 %ID/g
same,tissue uptake at 120 h,[2]; Tumor uptake,74 ± 35.5 %ID/g
